The data set concerns the molecule itself. Briefly: cryo-EM structure.

B1: rat GluD2 receptor, C-terminally truncated at residue 870 (GluD2Δ870) (receptor, UniProt Q63226 24-870, looked up)
chain: DSIIHIGAIFDESAKKDDEVFRTAVGDLNQNEEILQTEKITFSVTFVDGNNPFQAVQEACELMNQGILALVSSIGCTSAGSLQSLADAMHIPHLFIQRSTAGTPRSGCGLTRSNRNDDYTLSVRPPVYLNEVILRVVTEYAWQKFIIFYDSEYDIRGIQEFLDKVSQQGMDVALQKVENNINKMITTLFDTMRIEELNRYRDTLRRAILVMNPATAKSFISEVVETNLVAFDCHWIIINEEINDVDVQELVRRSIGRLTIIRQTFPVPQNISQRCFRGNHRISSTLCDPKDPFAQNMEISNLYIYDTVLLLANAFHKKLEDRKWHSMASLSCIRKNSKPWQGGRSMLETIKKGGVNGLTGDLEFGENGGNPNVHFEILGTNYGEELGRGVRKLGCWNPVTGLNGSLTDKKLENNMRGVVLRVVTVLEEPFVMVSENVLGKPKKYQGFSIDVLDALSNYLGFNYEIYVAPDHKYGSPQEDGTWNGLVGELVFKRADIGISALTITPDRENVVDFTTRYMDYSVGVLLRRAEKTVDMFACLAPFDLSLWACIAGTVLLVGLLVYLLNWLNPPRLQMGSMTSTTLYNSMWFVYGSFVQQGGEVPYTTLATRMMMGAWWLFALIVISSYTANLAAFLTITRIESSIQSLQDLSKQTDIPYGTVLDSAVYQHVRMKGLNPFERDSMYSQMWRMINRSNGSENNVLESQAGIQKVKYGNYAFVWDAAVLEYVAINDPDCSFYTVGNTVADRGYGIALQHGSPYRDVFSQRILELQQSGDMDILKHKWWPKNGQCDLYSSVDAKQKGGALDIKSLAGVFCILAAGIVLSCLIAVLETWWSRRKGSRVPSKEDDK
What is called stoichiometry N is the number of molecules, sites or subunits per partner or assembly. Turning to B1, the “stoichiometry N” value came out at 4.

The record behind these values is article doi:10.1101/2020.01.10.902072 (bioRxiv, 2020).
